Results: US11912777 (NANJING LEADS BIOLABS, dated 2024)

Molecular target: T1, human TNFR2, mouse Fc-tag (human)
T1 construct: also called hTNFR2-mFc; huTNFR2-mFc
T1 chain: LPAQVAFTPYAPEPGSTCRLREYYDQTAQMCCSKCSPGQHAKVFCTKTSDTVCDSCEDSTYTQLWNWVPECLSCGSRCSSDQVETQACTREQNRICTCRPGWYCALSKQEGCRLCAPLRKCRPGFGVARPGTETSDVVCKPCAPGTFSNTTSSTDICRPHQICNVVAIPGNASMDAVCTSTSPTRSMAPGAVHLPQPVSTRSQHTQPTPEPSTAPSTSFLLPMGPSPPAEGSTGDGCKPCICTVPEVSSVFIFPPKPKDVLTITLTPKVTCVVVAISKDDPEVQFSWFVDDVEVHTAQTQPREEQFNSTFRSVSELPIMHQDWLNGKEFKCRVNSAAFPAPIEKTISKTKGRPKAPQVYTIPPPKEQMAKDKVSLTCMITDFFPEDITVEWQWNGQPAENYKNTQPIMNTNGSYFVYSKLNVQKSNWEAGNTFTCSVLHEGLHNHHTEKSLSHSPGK
Test: blocking ELISA: hTNFR2-mFc mixed with antibody, binding to coated TNF-alpha his tag; right panel; unit from the axis [b]

B1: humanized antibody hu3-E (Hu3-H3/Hu3-L1) (antibody, human IgG1, kappa, V domains shown)
VH: QIQLVQSGAEVKKPGASVKVSCKASGYTFTTYGMSWVRQAPGQGLEWMGWIHTYSGVPTYADDFKGRFAFTLDTSTSTAYMELRSLRSDDTAVYYCARGLYGVDYWGQGTLVTVSS
VL: EIVMTQSPATLSLSPGERATLSCKASENVVTYVSWYQQKPGQAPRLLIYGASNRYTGIPARFSGSGSATDFTLTISSLQPEDFAVYYCGQSYTYPYTFGQGTKLEIKR
notes: Humanized form of 43B7A4, human IgG1/kappa
IC50: 0.282 nM
